This data set in a line: protease stability score; higher = more stable; yeast display proteolysis, trypsin and chymotrypsin.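 Further: relative to predicted unfolded state with 0 unfolded-like and 1 meaning tenfold more protease.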
Sequence “SEDEHLADHFLRLQRKHIDTGDEDSFDRMIDPRAKFDIDGQEFHGREWSEWVKKRFDHVHIERIITRKFHVVDGRAEFHVDYDGRLNYNGVEVRVTLKQITIIEKIDGRWYVRSESIK” had a protease stability score of 0.656.
As for “HEHEEELREFLRLWIEDLVTGNEDSLREFADPNMRIEQGDKEHHGREQFLEIMHRLVREARLEIILRRMNIFDGKANIDGELMIRIGDKHIRHHLRIIILKIDGVWLLKSIHVR”, the figure is 1.94; as for “SEDEEKLQHMTHLFIHLEITGDEKLWTELADPNVRLDINGVEYHGREHVLRSWVELGIKVMRLHRRTAQGDKMHLDGTIDFNGRRYRIHVDVKIIDGKLKDTKQHIE”, 2.17; as for “NHLEEVKDLAIELSWKLMHTGNEELSDRNADPNTRLEFNGVEFVGREWFRQFISEMGVKHIRIDDIDMFDGRMRLDGTFNFNGQEIKVTVFTRKVDGRWRIKSLKFD”, 1.6.
As for “REEEKFAIHLVRRVVEYLLTGDEDSLKRLADPNTRIHINGVDRHGMEESYKWWKSEIDHLRHHIVITRMRFIDGVIEVDIRLHSDFDGVRFSWNVHLILLVVDGRIKTDKMIVE”, the figure is 1.26; as for “SELEKLSHELARLLIENWETGDWKRFIDLIDPHAKLHIGDKDHIGREEITRFLKEVWHRFDHIEMRIHHIKVIGNYAHSDGEMIININGQERRHDVEIIVVVVNGVVHSVEIHIE”, 1.9.
As for “SEEHELSHHWADLMFHWMLTGDEEMFEHFADPHVRLHVNGKDIHGREKFVEWLREELEKIKNLTYRLHDVEIQGDKVHLTVKVDVNGKRLDTRVHIDLVNGRVRSIEIRHR”, the figure is 1.42.
Turning to “SEIEEHIKHMAHEILHNMLTGDWRRFSELADPNVRITVQQGDKVREYHGWESWKLLLDELRLHRFEFKDMHVQGNYAHIIGRQVGEFDGVRQDRDIEIIHVVVNGRIKQVIVHVE”, the protease stability score was determined as 1.86.
As for “DREHDELRKTWEIYSQALSTGDEDELNKLADPNTRLDIDGKELHGMEDVHRHLHHNLRRVDHIELRIHEIRYQGDFAHVDGEVIIVYDGVKKSRRVHLILTKINGRWILTSVEFR”, the figure is 1.28.
“DEHDRDARRFTDILLEAFMTGDEDLSHKMLDPNMRLHINGKIHHGRELATELLHEMRIERLVIEDYRIHYQGEKVHVTLHGRLHGRVDGKEHNSEVNIFINIEKVNGKWIVRSFTLKIH” returned a protease stability score of 1.47.
As for “DENKETIDRVYRLLDEALKTGDFEIFAYLMDPHVRNDVDGVDIVGRDLVKKVLEDIIRDLGFKHETLKVHDWRSINGRVHIDTEVELDVNGVDLRKRTIIIALKINGKWRITEIVFE”, the figure is 2.33; as for “NEEKETADTFLRHLVHRLHTGDEDMLMRLADPHVLIIQGDKTYHGWHWFERNFLEQINRFKGLTVKVERKDVHLFENRLILEGTLHLEFNGRDVHIEQEIIVHKINGRWILTHYMLI”, 0.813; as for “SEHKELVEHITKLSWELLKTGDEEILLHLADPDMKVEVGDKEMHGREEWARFLIETLRRVKNLRVDLHRVHIQGEKAHVDGTIFIDGVEFTDQLNFVVINGRIKHINIIDR”, 1.46.
Take “SEIWHLAENLSHLWMHKILTGDEDSIRNLLDPNARVHVNGKEVHGREETVKFMRHRVDEMGVDHMHFELKRFEVQGNYAIHHGTLIIHVDGREIRIESTIHLLKVNGRWLITDSSER”: the protease stability score came out at 0.845.
As for “HEKEHRLHEIMELWLKLVQTGNEEILMELADPHTKLDIGDKHLHGRELTSRFLLHMRIEDLTIKRIDVQGDYAHIDGHVIGVINGRRFISDRHIHLDIYNGKHRRVEVRIE”, the figure is 1.01.
As for “HEEDERIEHFFELYKRSLKTGNEEIIEYLFDPHVRYEQGDWEVHGRTEFIEMLKHLRFHTVRLRDYRLIGDYVHLDIELEGRVGDKNLHVKSTLIALKVDGRWRIHTLEIE”, the figure is 0.772; as for “DEDHRWLKELMELFSRALSTGNEKELTELMDPNTRIEVDGVDLIGREDWRHFLERVDHLEAKRVEIKRVKVYDGKIEMDTTEDGVIEINGQNVRTIVHSQVFVLKVDGRWIFRKMSRR”, 1.42; as for “DEEEEIFRHLFKLFVDATETGDEHILKELLDPHTRIHVNGQDFHGRENAIHFWRHMRIDEIRLKEIEVQGDKIHITGHVRGQIDGQQVRTDFELIMVKIDGRWKIHSEIYH”, 2.
As for “DDRERDSREAQEILREILLTGDFKTLYELADPHYRHNWDGRTIHGMETIVKLFLDLGMEIRDMRFRHLEIQGDFIHLDVDINGRINGKEKNVKIRVHARKIDGRWVLHSSERD”, the figure is 1.38; as for “SHWDQRLEELSKLVVDHLNTGDFEEIKRLVDPHMRLEIGDKTRIGREQIHEWLEEFLRRYKNARVEIRIEHHELYGEKFFADTRLNLHVGDKHHHFDTRLEIHVIDGKIHSMSMRIH”, 1.1.
Sequence “DKLHHDARWMMERLYETLETGDFHSFLRLADPEVLLIINGQFLHGREEVERFYDEEREKFKGLTIKHLHIHRVEMQGDKVRVDSRIHHIINGVNVHNNVKLEFVAFDGRMHRLRIEEE” came in with a protease stability score of 1.24.
As for “SEDEKASKEAFELWRRVDETGDEHSLLRLLDPHVRLHIGDKHLHGREEVKRLLEELGVSRVHFDLRTIRVINGKVFVHGDFEVGDKRTHSEIVALKVDGRWINESIHIR”, the figure is 0.806; as for “DEDEERARHHLEEIIKTIHTGDENLYEKLVDPNAWMDINGRELHGREEVVKYWSHEAHRFGIDVIRLRHEERVGNYVHSDTDLEVNGKTIKTRLVMLKINGKWVIQSFEMH”, 0.75.
In turn, “DEEEEEDRHAAEITIKVLLTGDEKKLQELADPHTRFIIWIDGRELRYIGRRDLVRVWREIIRKLGIDHLSLDDMRVIDGKIHLHETMNVDGKNISRRIINNVINGVNKHIEVNLS” gave a protease stability score of 1.17.
Take “DEDYENFERFLKEWSHSVLTGNEDRLMELADPHTRLNINGVDIHGREEVLKFEHEHLKRVKGATLRRVRVRHYSFVNGVAFVETEFDGHINGVDYRLETEMHIHKFNGVWRMKHIEKK”: the protease stability score amounted to 0.956.
As for “DPREIALKLLLQIMQELEETGDFREEEKYVDPHMRIKIDGVIYHGRSAIEHEYRRFDHIHEIELKRFHVQGDKITLEGYIRGNFDGKEHNTRSILLAKKVNGRWVLTEVTWL”, the figure is 0.801; as for “DELERLAVETIHRFWHSLTTGNEKVLDELLDPNVRVHYNGKDIIGMEHFLKEISEIWRHVEDIKFTDNRVQGEKIRVHGHVDVKEEFDGRKIKIHTRVDYVVHKINGVWVVQSIKIH”, 1.05.
In turn, “SEDEKLDRDLHDLFRKLWETGDFDSLLKLADPTARFIYDFENHSEEEHGMHVYLKRLTERLRFFKGLQIEVDVIHVVNGVSHFELTMHIDGVRIKVEIEVITIDGRVREMRVRDN” yielded a protease stability score of 0.738.
As for “SEDERELKHWQTIALRLWKTGDFKSELENLDPHARLHINGVHIIGRERMKEFLERIKNLRVEHLHDEHVHIQGDKITLHGHMDVIINGQRTEVDYEFILLKVNGRWLDHSIEMR”, the figure is 1.1; as for “DEVERDSELALREFYHAFRTGDEHTLVDLADPRTLTIWNGVELHGREEMKRLWHKVKNITVHDHHIDHERLIGNFVYMDVTIDGTFNGRRYRVRSHMVILKINGKWLYEKQHYE”, 1.16.
As for “NEREKWAVDMFEILVHLFFTGDEEIMAHMADPNTQIHYGEYHHHGRDHLRELLREEFKRVDHVEWRLDTVRIIDGRVLIHSHVIHKVGEKTIKREYVIILLKVNGQWHIKHIEIR”, the figure is 1.46.
Consider “DEDERHARKVLELWLQSLLTGDEELTDHLLDPRVKILVDGVELHGREHARMFHRHIHMRIDHMKDFHIHSFTSVGDKVHVDIRIHFRQGDKEYRLNQRTLILKVNGRWVIEKIEVD”, for which the protease stability score is 2.22.
In turn, “SEDEKIAHKVHRLMFESLRTGDEEFLRRMLDPNARFVVNGQDLVGMEFLDHTLREMRVREIRWRSSDVEIQGDKIINHSKVHSRFDQGEKETHVEVHIIIIYTKIDGQWHVKSVIIEYK” had a protease stability score of 1.12.
As for “SEIKENLHRFFERWQEVLRTGDERHIRDMADPNVRLDVNGKEIHGRELFANWIREHIERVDHISVHIHDMDIYGNKAKIRGELELDQGDKKHHLDLEIVTTKVDGKWILRSVHVR”, the figure is 2.12.
“SEEEKSAKIAVDLLLKSQLTGDEQTISELLDPNVRLDVNGREYHGREEYKKWFKHMVERADHMEIRLRHVHFYDGQVHVIGILIIRVNGKELRWEQILVVDKIDGRWLLSEFNFH” had a protease stability score of 2.63.
As for “DEEEEDSEDAVRFIMLALDTGDEKLLTSLADPNMRLDVNGREFHGREDFIHFLEEVRKKLGVDRIRTHVRETHVINGRVHVRGELRWNGRTHESHVHIIKIDGKWVIKSVHIR”, the figure is 2.11; as for “SEEEESWRRIAEEELRIRKTGDEDRFRELHDPSVKIDWNGQIIVGWEELHEILRHIAERYPNLRFEVTHSDVIDGRVHIDGRLNVNGVTLEFHIESVIVNGRTKSIRIEVR”, 0.524; as for “HDHDKHLDRLEELMLRWWKTGDWDKILKYADPHTRSDVNGKEYHGRESMVRAFEHVLKMLGIDVVYDQSHHLQGEKAKFHQESRVGDKRVEVIIIITIVDGRVTEFEVEVHHN”, 0.722.
On to “DEEERLWEAAEYFFIHLLQTGDEEMVTKYADPHVRSDVNGVEYHGMNQFVEEWRRLVERIDHLESHHIDRVEIYNGVVTVHLRVHGEVNGKRDTFRVIIFMYKYNGQWRIHSYEFK”, for which the protease stability score was 1.1.
As for “DENETALREVIKRYFKAILTGDEHELENLLDPNVRVEINGVKLHGMRDYLEWIREWRIKDMRIRIEHVEVIGNKMIIDSRLRVNETVNGVTRDREKKLHLIVTKINGRWHIEEINEE”, the figure is 2.16; as for “DEFREIIRRAMEIYRHSERTGDEDTIREMVDPDVKLDIDGKEIVGWERLLEFLTRVDHIHLHLNNMKLQGDYVIHDGELRLNIDGRNISTRIVIIAEKVNGRWHMKHVEFR”, 1.24; as for “TEEERSTRIAWEIWEMVHKTGDERLIRRFADPNVRIQIGEYNHHGREELENHTKRIDHLHVQDSDVKRVHHFDGQVHIDVHEIIHLEFDGVREDIKRRAHFVVVKYDGRWYLHHVKFH”, 0.937.
The sequence “DEHEESVIWLLDVMFDAWRTGDEERVRRYLDPNVRIEVDGVSIHGRERVVEHLRRIDHLSVERVEIHHSTVINGVARTDGHVLLEFNIGDKHFRIERKSDSIVEKIDGRWIVHELTYR” yielded a protease stability score of 0.202.
“REEEDNAEKFWEEFSKSLLTGDEDHMEELADPNARMRINGREKVGREEVRKELSHLFTHIRLKSIHLKDFKFFDGRLDIDGSLDGHINGKRREIEVHVHLWKVNGRWTLETLKIN”: the protease stability score was determined as 1.17.
As for “KELERDSREATHTFLRDIKTGDFESLHRLADPTTRMHIGDKEFHGWELLIHVIAEFLRKVPNMRTTLRDERVQGEKVEVRVDIHYNGQDRHIELEIHKVNGKWWIKVMEFE”, the figure is 0.88; as for “SEEENILEEMLKIFYESSRTGNEKTMQELFDPHARIEFEGVENIGMELAMRLTTHWRLQTVHIKDVRVIDGQIHMDGEERGVINGQEIRTEVDIISIKIDGRWLFHSKQIN”, 0.369.
Consider “DEDHRDAQRLVEHWINVFETGDEEQIEKLLDPNARVIVDGRHVHGRSSVLKFIVDLVREMRVELRLKDLSVVDGRVHVKMEMRIEINGRREETEVDINAEKVDGVWRFKEMFVI”, for which the protease stability score turned out to be 2.47.

These data come from the NTF2 design screens of Basanta et al. (2020).
